Target: recombinant tropoelastin (human) (UniProt P15502)

- percentage of total lysine in the precipitate (amino acid analysis) after 2 hrs at 37 C; formation of insoluble protein: 2.5 % lysine
Substance: recombinant human lysyl oxidase derived from the plasmid p3dL^m2 (enzyme)
